Source: patent publication US20240294622A1 (SUZHOU TRANSCENTA THERAPEUTICS, published 2024)
Blank lines part the entries; values can stand above or below the binder they belong to.

What was measured:
HGREM1-His (ACRO) [1] = molecular target: T1, HGREM1-His (ACRO) (human, UniProt O60565 25-184); test: ELISA: coated BMP4, gremlin titrated (sheet title: BMP2/4/7 binding to human gremlin-his)
T1 construct: Lys25-Asp184 of NP_037504 with C-terminal polyhistidine tag (ACRO GR1-H52H3); they are put here; also called hGREM1 (ACRO); human gremlin (ACRO)
T1 sequence: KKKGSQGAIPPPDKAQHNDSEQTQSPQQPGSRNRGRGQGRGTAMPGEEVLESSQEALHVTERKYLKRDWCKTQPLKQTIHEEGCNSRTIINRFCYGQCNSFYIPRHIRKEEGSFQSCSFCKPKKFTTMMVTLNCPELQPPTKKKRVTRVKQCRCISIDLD
Protocol: (§1) Gremlin is known to be able to bind to BMP proteins and is validated by the present disclosure. Briefly, gremlin-Fc was tested for its binding ability to BMP 2/4/7 immobilized on plate. Briefly, plates were coated with […] of recombinant human BMP2, BMP4) (hBMP4, Peprotech) or human BMP7 (R&D) overnight and wild-type gremlin-1 was added to coated plates and allowed to incubate for an additional hour at RT. The plates were then washed and plate bound biotin-hGremlin was detected with neutravidin conjugated with HRP (thermo). Plates were then developed with a TMB solution and stopped by adding stop solution. The plates were read on a plate reader at 450 nm.

Gremlin-Fc [2] = molecular target: T2, Gremlin-Fc (human, UniProt O60565 25-184); test: ELISA, coated BMP4 0.5 ug/ml
T2 construct: also called HGREM1-Fc (ACRO); wild-type gremlin-1
T2 sequence: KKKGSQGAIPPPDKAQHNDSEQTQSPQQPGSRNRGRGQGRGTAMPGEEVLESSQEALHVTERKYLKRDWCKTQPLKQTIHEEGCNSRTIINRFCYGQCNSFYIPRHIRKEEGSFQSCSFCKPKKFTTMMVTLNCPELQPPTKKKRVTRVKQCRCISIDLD
Protocol: as §1

HGREM1-His (ACRO) [3] = molecular target: T1, HGREM1-His (ACRO); test: BLI Fortebio, human gremlin-his on NTA biosensor, antibody 100, 50, 25 nM
Protocol: The affinity of the humanized antibodies were also measured by Fortebio. Human gremlin protein was diluted with kinetics buffer to get a concentration of 2 μg/ml. 0 nM was used as a reference control. Antibodies to be tested were diluted with ForteBio kinetics buffer (PBS pH 7.4, 0.1% BSA+0.002% Tween-20) to a concentration of 100 nM, 50 nM, and 25 nM. Human gremlin-his was immobilized onto NTA biosensor. The baseline was detected for 60 seconds, and then anti-gremlin antibody association was detected for 120 seconds to get the Kₒₙ factor data. Followed by dissociation in kinetic buffer for 90 seconds to get the Koff factor data.

BMP4 with his-tag = molecular target: T3, BMP4 with his-tag (Homo sapiens (Human), UniProt P12644 293-408, Natural BMP4 is a disulfide-linked homodimer; one protomer is given. The his-tag is left out.); test: ELISA: anti-human Fc coated, XM5-hFc supernatant (1:32) captured, his-tagged BMP4 titrated, anti-his-HRP
T3 construct: also called BMPs (BMP2/4/7) with his-tag
T3 sequence: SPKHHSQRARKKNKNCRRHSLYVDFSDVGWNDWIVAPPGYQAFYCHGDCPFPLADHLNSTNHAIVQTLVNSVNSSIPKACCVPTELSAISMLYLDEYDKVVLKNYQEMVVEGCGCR

BMP7 with his-tag = molecular target: T4, BMP7 with his-tag (Homo sapiens (Human), UniProt P18075 293-431, Natural BMP7 is a disulfide-linked homodimer; one protomer is given. The his-tag is left out.); test: ELISA: anti-human Fc coated, XM5-hFc supernatant (1:32) captured, his-tagged BMP7 titrated, anti-his-HRP
T4 construct: also called BMPs (BMP2/4/7) with his-tag
T4 sequence: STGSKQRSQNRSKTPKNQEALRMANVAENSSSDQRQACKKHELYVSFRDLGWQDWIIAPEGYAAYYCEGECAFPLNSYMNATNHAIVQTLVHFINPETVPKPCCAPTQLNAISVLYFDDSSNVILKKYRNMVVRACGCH

BMP2 with his-tag = molecular target: T5, BMP2 with his-tag (Homo sapiens (Human), UniProt P12643 283-396, Natural BMP2 is a disulfide-linked homodimer; one protomer is given. The his-tag is left out.); test: ELISA: anti-human Fc coated, XM5-hFc supernatant (1:32) captured, his-tagged BMP2 titrated, anti-his-HRP
T5 construct: soluble his-tagged BMP used on captured XM5-Fc or Gremlin-Fc; also called BMPs (BMP2/4/7) with his-tag

Gremlin-Fc [4] = molecular target: T2, Gremlin-Fc; test: ELISA, coated BMP2 0.5 ug/ml
Protocol: as §1

HGREM1-His (ACRO) [5] = molecular target: T1, HGREM1-His (ACRO); test: ELISA: coated BMP2, gremlin titrated (sheet title: BMP2/4/7 binding to human gremlin-his)

- binding result (HGREM1-His (ACRO) [1]): binds
- binding result (Gremlin-Fc [2]): binds
B1: recombinant human BMP4 (ligand, UniProt P12644 293-408, looked up)
chain: SPKHHSQRARKKNKNCRRHSLYVDFSDVGWNDWIVAPPGYQAFYCHGDCPFPLADHLNSTNHAIVQTLVNSVNSSIPKACCVPTELSAISMLYLDEYDKVVLKNYQEMVVEGCGCR
notes: also called hBMP4

- Kd (HGREM1-His (ACRO) [3]): < 1 nM
B2: humanized anti-gremlin1 antibody 14E3 (variant not stated) (antibody, V domains shown)
VH: QVQLVQSGSELKKPGASVKVSCKASGYTFTTYGMAWMRQAPGQGLEWMGWINTLSGEPTYADDFKGRFVFSLDTSVSTAYLQISSLKAEDTAVYYCAREPMDYWGQGTMVTVSS
VL: DVVMTQSPLSLPVTLGQPASISCKSSQSLLDSDGKTYLSWLQQRPGQSPRRLIYLVSKLDSGVPDRFSGSGSGTDFTLKISRVEAEDVGVYYCWQGAHFPLTFGQGTKLEIK
notes: also called Hu14E3; humanized 14E3

- binding result (BMP4 with his-tag): no binding (tested: 2.00 ug/ml)
- binding result (BMP7 with his-tag): no binding (tested: 2.00 ug/ml)
- binding result (BMP2 with his-tag): no binding (tested: 2.00 ug/ml)
B3: XM5-Fc (Fc fusion, not shown: a dimerising Fc or GST)
chain: KKKGSQGAIPPPDKAQHNDSEQTQSPQQPGSRNRGRGQGRGTAMPGEEVLESSQEALHVTERKYLKRDWCKTQPLKQTIHEEGCNSRTIINRFCYGQCFSYSVPNTFPQSTESLVHCDSCKPKKFTTMMVTLNCPELQPPTKKKRVTRVKQCRCISIDLD
notes: also called gremlin 1-DAN fusion protein

- binding result (Gremlin-Fc [4]): binds
- binding result (HGREM1-His (ACRO) [5]): binds
B4: recombinant human BMP2 (ligand, UniProt P12643 283-396, looked up)
chain: QAKHKQRKRLKSSCKRHPLYVDFSDVGWNDWIVAPPGYHAFYCHGECPFPLADHLNSTNHAIVQTLVNSVNSKIPKACCVPTELSAISMLYLDENEKVVLKNYQDMVVEGCGCR
notes: also called hBMP2
